Experimental data reported in patent publication US20110150896A1 (published 2011).

Target: full-length PcrV protein (recombinant, 1-294) (in the biotin-labeled form: PEO-maleimide activated biotin on the inserted cysteine)
Test: SPR

B1: 1F3 (antibody, V domains shown)
VH: QVQLQQPGAELVKPGASVKLSCKASGYSFTSYWMHWVKQRPGQGLEWIGEINPSNGRTNYNEKFNTKATLTVDTSSSTAYMQLSSLTSEDSAVYYCVLYGNYVVYYTMDYWGQGTSVTVSS
VL: QIVLTQSPTIMSASLGEEITLTCSASTSVSYMEWYQQKSGTSPKILIYTTSKLASGVPSRFSGSGSGTFYSLTISSVEAEDAADYYCHQWRNYPFTFGSGTKLEIKR
Kd: 0.37 nM

B2: 2A4 (antibody, V domains shown)
VH: DVQLQESGPGLVKPSQSLSLTCTVTGYSITSDYAWNWIRQFPGNKLEWMGYITYNGDTSYNPSLKSRISIARDTSKNQFFLQLNSVTTEDTATYSCAGSRNYYGAWFAYWGQGTLVTVSA
VL: DIVMTQSHKFMSTSIGDRVSINYKASQYVGTTVAWYQQKSGHSPKLLIYRASTRHTGVPDRFTGSGSGTDFTLNISNVQSEDLADYFCQQYCSSPLTFGAGTYLEVKR
Kd: 0.35 nM
